Data from patent US20030229204A1 (Dana-Farber, published 2003).
Values belong to the binder of their own block, whether it stands above or below them.

Assays:
[1] = target: T1, GST-PPARγ fusion protein (immobilized PPARγ) (UniProt P37238 1-505); assay: pull-down of in vitro-translated 35S-labeled PGC-1 deletion with immobilized GST-PPARγ
T1 construct: also called FST-PPARγ fusion protein; bacterially expressed PPARγ immobilized on beads; not shown: glutathione S-transferase (GST) moiety; printed as 'FST'
T1 sequence (looked up): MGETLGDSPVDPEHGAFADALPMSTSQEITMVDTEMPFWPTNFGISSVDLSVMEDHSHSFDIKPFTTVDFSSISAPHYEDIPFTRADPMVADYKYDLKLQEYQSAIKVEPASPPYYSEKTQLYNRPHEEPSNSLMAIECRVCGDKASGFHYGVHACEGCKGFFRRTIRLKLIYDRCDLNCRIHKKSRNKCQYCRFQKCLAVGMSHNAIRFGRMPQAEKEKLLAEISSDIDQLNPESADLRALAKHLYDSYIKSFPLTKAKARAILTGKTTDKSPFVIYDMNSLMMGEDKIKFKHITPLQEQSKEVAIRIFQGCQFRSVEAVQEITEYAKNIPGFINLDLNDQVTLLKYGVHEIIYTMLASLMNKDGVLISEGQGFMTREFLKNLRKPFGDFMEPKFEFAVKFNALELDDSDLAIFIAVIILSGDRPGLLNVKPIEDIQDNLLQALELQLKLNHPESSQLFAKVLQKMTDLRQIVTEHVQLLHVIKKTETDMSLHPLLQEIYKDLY
Text: These were then translated into vitro with an [³⁵S]methionine-label. One microliter of each in vitro translation reaction was resolved by SDS-PAGE and autoradigraphed.

[2] = target: T2, full-length mouse PGC-1 (aa 1-797) (mouse, UniProt O70343 1-797, [35S]methionine-labeled in the pull-down assays); assay: pull-down of in vitro-translated PGC-1 with GST-PPARγ deletion
T2 construct: In vitro reticulocyte translation product in the pull-downs; the same full-length protein was expressed from pSV-SPORT in the transcription assays; also called reticulocyte-translated PGC-1
T2 sequence: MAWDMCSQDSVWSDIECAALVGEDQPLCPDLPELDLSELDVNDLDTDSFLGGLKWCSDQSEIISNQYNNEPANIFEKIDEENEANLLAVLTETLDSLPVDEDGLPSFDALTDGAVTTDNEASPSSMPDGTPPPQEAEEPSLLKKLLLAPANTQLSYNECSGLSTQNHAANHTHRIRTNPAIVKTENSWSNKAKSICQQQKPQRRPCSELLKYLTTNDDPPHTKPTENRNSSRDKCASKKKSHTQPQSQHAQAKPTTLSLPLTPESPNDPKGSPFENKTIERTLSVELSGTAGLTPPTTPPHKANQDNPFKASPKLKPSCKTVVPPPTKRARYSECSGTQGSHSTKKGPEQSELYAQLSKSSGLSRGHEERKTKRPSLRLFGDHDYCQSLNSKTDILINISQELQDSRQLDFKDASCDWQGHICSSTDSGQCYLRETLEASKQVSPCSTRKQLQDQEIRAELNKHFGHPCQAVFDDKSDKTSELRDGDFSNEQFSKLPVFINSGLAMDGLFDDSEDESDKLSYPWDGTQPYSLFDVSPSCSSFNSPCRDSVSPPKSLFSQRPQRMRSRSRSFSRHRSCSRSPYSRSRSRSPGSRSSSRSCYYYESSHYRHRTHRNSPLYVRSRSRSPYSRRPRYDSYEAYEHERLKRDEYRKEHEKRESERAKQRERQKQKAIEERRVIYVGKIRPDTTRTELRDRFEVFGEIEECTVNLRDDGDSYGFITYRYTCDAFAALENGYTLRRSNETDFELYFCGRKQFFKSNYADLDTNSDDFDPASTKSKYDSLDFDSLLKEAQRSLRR
Text: Most of the nuclear hormone receptor coactivators identified to date interact with the C-terminal AF-2 domain, which is responsible for ligand-dependent transcriptional activation.

binding result [1]: no binding
B1: PGC-1 1-292 (other)
chain: MAWDMCSQDSVWSDIECAALVGEDQPLCPDLPELDLSELDVNDLDTDSFLGGLKWCSDQSEIISNQYNNEPANIFEKIDEENEANLLAVLTETLDSLPVDEDGLPSFDALTDGAVTTDNEASPSSMPDGTPPPQEAEEPSLLKKLLLAPANTQLSYNECSGLSTQNHAANHTHRIRTNPAIVKTENSWSNKAKSICQQQKPQRRPCSELLKYLTTNDDPPHTKPTENRNSSRDKCASKKKSHTQPQSQHAQAKPTTLSLPLTPESPNDPKGSPFENKTIERTLSVELSGTAG
modifications: [35S]methionine-labeled
notes: In vitro translated; still contains the LXXLL motif (aa 142-146)

binding result [2]: no binding
B2: GST fusion of PPARγ 228-505 (receptor, mouse, UniProt P37238 228-505, looked up)
chain: DIDQLNPESADLRALAKHLYDSYIKSFPLTKAKARAILTGKTTDKSPFVIYDMNSLMMGEDKIKFKHITPLQEQSKEVAIRIFQGCQFRSVEAVQEITEYAKNIPGFINLDLNDQVTLLKYGVHEIIYTMLASLMNKDGVLISEGQGFMTREFLKNLRKPFGDFMEPKFEFAVKFNALELDDSDLAIFIAVIILSGDRPGLLNVKPIEDIQDNLLQALELQLKLNHPESSQLFAKVLQKMTDLRQIVTEHVQLLHVIKKTETDMSLHPLLQEIYKDLY
notes: not shown: glutathione S-transferase (GST) moiety of pGEX 5X2
